Values of other authors in publication PMC6023760.

Target: Thrombin exosite 2 (Homo sapiens) (UniProt P00734)

Substance: Fibrin γ′-chain γ′ site (from UniProt P02679)
- Kd: 0.2 µM
